# Measured values: US20200308301A1 (Novartis, published 2020)
# Residue numbers refer to the chain shown, from its start.
# B1: IDT3 (Fab, V domains shown)
# VH: QVQLVESGGGLVKPGGSLRLSCAASGFTFQSAAVHWVRQAPGKGLEWVGRIKSKADGGTTDYAAPVKGRFTISRDDSKNTLYLQMNSLKTEDTAVYYCARDSPSISSYSIPYFSGMDVWGQGTLVTVSS
# VL: DIQMTQSPSSLSASVGDRVTITCRASQGIRAWLNWYQQKPGKAPKLLIYAASSLQSGVPSRFSGSGSGTDFTLTISSLQPEDFATYYCHQYITHPPTFGQGTKVEIKR
# notes: Fab; also called anti-NOV1401 Fab IDT3
# B2: IDT7 (Fab, V domains shown)
# VH: QVQLVESGGGLVKPGGSLRLSCAASGFTFSSNAMHWVRQAPGKGLEWVGRIKSKTDGGTTDYAAPVKGRFTISRDDSKNTLYLQMNSLKTEDTAVYYCARDHYYYPFAYWGQGTLVTVSS
# VL: B1 VL with G28S, A31Y, W32N, N34A, T93A, H94K, P96I
# notes: Fab; also called anti-NOV1401 Fab IDT7
# B3: IDT8 (Fab, V domains shown)
# VH: B2 VH with D56S
# VL: B1 VL with G28S, A31Y, W32N, N34A, T93A, H94K, P96I
# notes: Fab; also called anti-NOV1401 Fab IDT8
# B4: IDT10 (Fab, V domains shown)
# VH: QVQLVQSGAEVKKPGASVKVSCKASGYTFTNYYVHWVRQAPGQGLEWMGWINPYSGNTNYAQKFQGRVTMTRDTSISTAYMELSRLRSEDTAVYYCARGASSIRMSYYLDVWGQGTLVTVSS
# VL: B1 VL with G28S, R30S, A31N, W32Y, S53N, H89F, I92T, T93H, H94S, P96A
# notes: Fab; also called anti-NOV1401 Fab IDT10
# B5: IDT1 (Fab, V domains shown)
# VH: QVQLLESGGGLVQPGGSLRLSCAASGFTFSDYAMSWVRQAPGKGLEWVSVIDYSSSNTYYADSVKGRFTISRDNSKNTLYLQMNSLRAEDTAVYYCAREGYSYRSIRFDYWGQGTLVTVSS
# VL: DIQMTQSPSSLSASVGDRVTITCRASQSISSNLNWYQQKPGKAPKLLIYAASNLQSGVPSRFSGSGSGTDFTLTISSLQPEDFATYYCLQFDHTPFTFGQGTKVEIKR
# notes: Fab (heavy chain is VH-CH1); also called anti-NOV1401 Fab IDT1
# B6: IDT12 (antibody, human IgG1, kappa, V domains shown)
# VH: B1 VH with Q30S
# VL: B1 VL
# notes: also called anti-NOV1401 IgG IDT12; full length IgG format for IDT2
# B7: IDT11 (antibody, human IgG1, kappa, V domains shown)
# VH: B5 VH
# VL: B5 VL
# notes: also called anti-NOV1401 IgG IDT11; full length IgG format for IDT1
# Target: T1, NOV1401
# T1 construct: It was amine-coupled to the chip in SPR, and used soluble and biotinylated in SET; also called anti-FXI/FXIa antibody NOV1401; anti-Factor XI/FXIa antibody NOV1401
# Assay: SPR (ProteOn XPR36), NOV1401 immobilized, Fab as analyte, 1:1 Langmuir fit, average
# Description: SPR binding experiments were performed on a ProteOn XPR36 instrument (Bio-Rad Laboratories, Inc.) in PBS/T buffer (50 mM phosphate, 150 mM NaCl, pH 7.4, 0.005% v/v Tween-20) at 25° C. NOV1401 (‘Ligand’) was immobilized onto an activated ProteOn GLC sensor chip (Bio-Rad Laboratories, Inc.) using standard amine coupling procedures as described by the manufacturer. Briefly, NOV1401 was injected at a concentration of 10 μg/ml in 20 mM sodium acetate, pH 5.0 and at a flow rate of 30 μl/min for 10 min. Unreacted groups were blocked by injecting 1 M ethanolamine.
# For kinetic studies anti-NOV1401 Fabs (‘Analytes’) were diluted in PBS/T buffer to generate a dilution series with concentrations ranging from 0.125-4 nM. Fabs were injected onto surfaces with immobilized NOV1401 at a flow rate of 100 μL/min and sensorgrams were recorded for association and dissociation times of 220 s and 1800 s, respectively. Blank surfaces were used for background corrections. There was no need to regenerate surfaces since the ProteOn protein interaction array system allows to run up to six binding experiments on an identical surface in parallel.
# Data processing and analysis including kon, koff, and KD determination were performed with the ProteOn Manager™ software version 3.1.0.6.
row,Kd [nM],Binder
1,0.24,B1
2,0.33,B2
3,2.15,B3
4,5.97,B4
5,0.44,B5

# Target: T1, NOV1401
# Assay: SET (solution equilibrium titration): constant anti-NOV1401 Fab with a NOV1401 dilution series, free Fab captured on a biotinylated-NOV1401 streptavidin plate, luminescence (RLU), 1:1 fit
# Description: (§1) 14 serial (2×) dilutions of NOV1401 were prepared in sample buffer (PBS pH 7.4 containing 0.5% (w/v) BSA and 0.02% Tween 20) and a constant concentration of the anti-NOV1401 Fab or IgG was added to each NOV1401 concentration ranging from 40 pM to 240 pM. Optimal constant anti-NOV1401 Fab or IgG concentrations and optimal starting concentrations for NOV1401 dilution series were determined in pilot experiments.
# (§2) After incubation and three times washing with PBST (PBS containing 0.05% Tween 20) 30 μl/well of the NOV1401/anti-NOV1401 Fab or IgG preparation was transferred from the polypropylene MTP to the NOV1401-coated SA plate and incubated for 30 min at RT on a MTP shaker. After three additional wash steps, 30 μl of 0.5 μg/ml detection antibody (Goat anti-human Kappa LC-HRP, BETHYL # A80-115P) diluted in sample buffer was added to each well and incubated for 1 h at RT with shaking. […] Electrochemiluminescence (ECL) signals were generated and detected immediately with a luminescence imager (SpectraMax M5, Molecular Devices, LLC).
# (§3) Average ECL-signals were calculated from duplicate measurements within each assay. […] KD values were determined by fitting the plot with the following non-linear curve fitting model for 1:1 binding according to Haenel et al 2005: […]
# Target sequence in this assay (VL, as listed by the source): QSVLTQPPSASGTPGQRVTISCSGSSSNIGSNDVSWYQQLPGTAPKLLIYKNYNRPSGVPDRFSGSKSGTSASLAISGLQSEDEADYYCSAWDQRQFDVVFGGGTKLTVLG
row,Kd [nM],Binder
1,0.16,B2
2,0.96,B3

# Target: T1, NOV1401
# Assay: Solution equilibrium titration (SET), IgG, 1:1 fit, average
# Description: as §1, §2, §3
# Target sequence in this assay (VL, as listed by the source): as above
row,Kd [nM],Binder
1,0.0051,B6
2,0.0007,B7

# Target: T1, NOV1401
# Assay: cell-based or functional assay
"aPTT percentage reversal, NOV1401/anti NOV1401 ratio 1/1 (n/n) [%]","aPTT percentage reversal, NOV1401/anti NOV1401 ratio 1/3 (n/n) [%]","aPTT percentage reversal, NOV1401/anti NOV1401 ratio 1/10 (n/n) [%]",Binder
9,35,58,B1
16,37,54,B2
9,51,61,B6
8,25,42,B3
12,25,40,B4
19,55,57,B7
12,45,64,B5

# Target: T1, NOV1401
# Assay: cell-based or functional assay
# Remark: another data set of the same source
"TGA percentage reversal, NOV1401/anti NOV1401 ratio 1/1 (n/n) [%]","TGA percentage reversal, NOV1401/anti NOV1401 ratio 1/3 (n/n) [%]","TGA percentage reversal, NOV1401/anti NOV1401 ratio 1/10 (n/n) [%]",Binder
31,47,67,B1
50,66,71,B2
60,64,62,B6
41,56,69,B3
37,45,57,B4
50,59,67,B7
49,55,55,B5

# Target: T2, Human plasma-derived FXIa (human, UniProt P03951 19-625)
# T2 construct: also called Factor XIa
# Assay: SPR, FXIa immobilized on GLC chip
# Description: SPR experiments were performed in principle as described in Example 2 with the following changes. Human plasma-derived FXIa was used as ligand and immobilized on an activated ProteOn GLC sensor chip (Bio-Rad Laboratories, Inc.) using standard amine coupling procedures as described and by injecting FXIa at a concentration of 10 μg/ml in 20 mM sodium acetate, pH 5.0 and at a flow rate of 30 μl/min for 10 min.
# For binding competition studies NOV1401 and three mixture of NOV1401 with anti-NOV1401 Fab at molar ratios of 1:1, 1:2, and 1:10 were prepared in PBS/T buffer and injected in simultaneously onto surfaces with immobilized FXI at a flow rate of 100 μL/min. Sensorgrams were recorded for association and dissociation times of 220 s and 1800 s, respectively. Blank surfaces were used for background corrections.
# T2 sequence (P03951 19-625 C226S limits assumed): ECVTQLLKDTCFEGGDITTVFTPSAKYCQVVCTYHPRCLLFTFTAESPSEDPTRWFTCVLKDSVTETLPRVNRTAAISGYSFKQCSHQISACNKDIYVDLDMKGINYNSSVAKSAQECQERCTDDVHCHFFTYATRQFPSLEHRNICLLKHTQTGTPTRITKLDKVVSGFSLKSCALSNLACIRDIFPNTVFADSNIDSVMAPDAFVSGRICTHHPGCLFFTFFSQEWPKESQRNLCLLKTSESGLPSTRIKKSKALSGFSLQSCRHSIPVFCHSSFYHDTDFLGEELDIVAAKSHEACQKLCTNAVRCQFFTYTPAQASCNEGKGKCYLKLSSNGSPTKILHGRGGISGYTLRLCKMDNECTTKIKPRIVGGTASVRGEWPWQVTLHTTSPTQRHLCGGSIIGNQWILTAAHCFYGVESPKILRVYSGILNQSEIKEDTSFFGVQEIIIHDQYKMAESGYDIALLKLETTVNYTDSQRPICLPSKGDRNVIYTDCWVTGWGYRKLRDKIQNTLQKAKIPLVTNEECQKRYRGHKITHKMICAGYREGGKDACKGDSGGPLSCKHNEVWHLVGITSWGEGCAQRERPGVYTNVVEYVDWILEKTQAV
row,binding result,Binder
1,no binding,B1
2,no binding,B5

# Target: T1, NOV1401
# Assay: Solution equilibrium titration (SET), 1:1 fit, average
# Description: as §1
# After incubation and three times washing with PBST (PBS containing 0.05% Tween 20) 30 μl/well of the NOV1401/anti-NOV1401 Fab or IgG preparation was transferred from the polypropylene MTP to the NOV1401-coated SA plate and incubated for 30 min at RT on a MTP shaker. After three additional wash steps, 30 μl of 0.5 μg/ml detection antibody (Goat anti-human Kappa LC-HRP, BETHYL # A80-115P) diluted in sample buffer was added to each well and incubated for 1 h at RT with shaking. After washing the plate again three times, 30 μl of detection reagent (LumiGLO Peroxidase Chemiluminescent Substrate, KPL #54-61-01) was added to each well. Electrochemiluminescence (ECL) signals were generated and detected immediately with a luminescence imager (SpectraMax M5, Molecular Devices, LLC).
# Average ECL-signals were calculated from duplicate measurements within each assay. Data were baseline adjusted by subtracting the lowest value from all data points and plotted against the corresponding antigen concentration. KD values were determined by fitting the plot with the following non-linear curve fitting model for 1:1 binding according to Haenel et al 2005: […]
row,Kd [nM],Binder
1,0.1,B1
2,0.96,B2
3,0.16,B3
4,1.19,B4
5,0.11,B5
